# Target: β2 subunit of human LFA-1 expressed in BAF/LFA-1 cells (human) (UniProt P05107)
# Assay: co-IP; lysates of BAF/LFA-1 cells transfected with vector or Spa-1, ±CXCL12 for 1 min, immunoprecipitated with anti-β2, immunoblotted with anti-FLNa
# UniProt P05107, sequence (P05107 23-769): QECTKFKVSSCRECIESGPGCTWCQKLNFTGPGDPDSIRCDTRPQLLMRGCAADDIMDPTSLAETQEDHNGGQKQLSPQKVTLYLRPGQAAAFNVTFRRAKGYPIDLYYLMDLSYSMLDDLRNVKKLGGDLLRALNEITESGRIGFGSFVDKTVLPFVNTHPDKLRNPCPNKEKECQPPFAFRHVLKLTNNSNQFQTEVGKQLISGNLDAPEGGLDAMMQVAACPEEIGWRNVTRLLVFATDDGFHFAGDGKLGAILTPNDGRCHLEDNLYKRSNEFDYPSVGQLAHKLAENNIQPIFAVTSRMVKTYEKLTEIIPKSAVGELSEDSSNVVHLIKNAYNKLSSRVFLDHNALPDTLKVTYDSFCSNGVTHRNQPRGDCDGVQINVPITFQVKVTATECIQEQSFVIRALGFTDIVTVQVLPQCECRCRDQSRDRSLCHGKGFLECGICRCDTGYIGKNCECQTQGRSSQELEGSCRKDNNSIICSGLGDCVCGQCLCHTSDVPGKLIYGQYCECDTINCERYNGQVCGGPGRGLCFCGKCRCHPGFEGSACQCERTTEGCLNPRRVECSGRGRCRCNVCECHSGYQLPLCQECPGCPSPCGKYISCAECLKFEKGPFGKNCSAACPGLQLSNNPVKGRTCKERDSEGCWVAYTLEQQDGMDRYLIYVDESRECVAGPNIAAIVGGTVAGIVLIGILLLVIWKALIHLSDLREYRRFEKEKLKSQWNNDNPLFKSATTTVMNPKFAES
substance,measurement,value
"endogenous FLNa of BAF/LFA-1 cells, Q8BTM8 1-2647","FLNa co-precipitated with β2 after CXCL12 stimulation, Spa-1-expressing cells, percent",64.7%
same,"FLNa co-precipitated with β2 after CXCL12 stimulation, control cells, percent",25.2%
